Reference: IntAct's records for PubMed 11454741

B1: Stonin-2 (Homo sapiens), Q8WXE9 (parent)
chain: MTTLDHVIATHQSEWVSFNEEPPFPAHSQGGTEEHLPGLSSSPDQSESSSGENHVVDGGSQDHSHSEQDDSSEKMGLISEAASPPGSPEQPPPDLASAISNWVQFEDDTPWASTSPPHQETAETALPLTMPCWTCPSFDSLGRCPLTSESSWTTHSEDTSSPSFGCSYTDLQLINAEEQTSGQASGADSTDNSSSLQEDEEVEMEAISWQASSPAMNGHPAPPVTSARFPSWVTFDDNEVSCPLPPVTSPLKPNTPPSASVIPDVPYNSMGSFKKRDRPKSTLMNFSKVQKLDISSLNRTPSVTEASPWRATNPFLNETLQDVQPSPINPFSAFFEEQERRSQNSSISSTTGKSQRDSLIVIYQDAISFDDSSKTQSHSDAVEKLKQLQIDDPDHFGSATLPDDDPVAWIELDAHPPGSARSQPRDGWPMMLRIPEKKNIMSSRHWGPIFVKLTDTGYLQLYYEQGLEKPFREFKLEICHEISEPRLQNYDENGRIHSLRIDRVTYKEKKKYQPKPAVAHTAEREQVIKLGTTNYDDFLSFIHAVQDRLMDLPVLSMDLSTVGLNYLEEEITVDVRDEFSGIVSKGDNQILQHHVLTRIHILSFLSGLAECRLGLNDILVKGNEIVLRQDIMPTTTTKWIKLHECRFHGCVDEDVFHNSRVILFNPLDACRFELMRFRTVFAEKTLPFTLRTATSVNGAEVEVQSWLRMSTGFSANRDPLTQVPCENVMIRYPVPSEWVKNFRRESVLGEKSLKAKVNRGASFGSTSVSGSEPVMRVTLGTAKYEHAFNSIVWRINRLPDKNSASGHPHCFFCHLELGSDREVPSRFANHVNVEFSMPTTSASKASVRSISVEDKTDVRKWVNYSAHYSYQVALGSIWLMLPTPFVHPTTLPLLFLLAMLTMFAW
B2: Synaptotagmin-1 (Rattus norvegicus (Rat)), P21707 (parent)
chain: MVSASHPEALAAPVTTVATLVPHNATEPASPGEGKEDAFSKLKQKFMNELHKIPLPPWALIAIAIVAVLLVVTCCFCVCKKCLFKKKNKKKGKEKGGKNAINMKDVKDLGKTMKDQALKDDDAETGLTDGEEKEEPKEEEKLGKLQYSLDYDFQNNQLLVGIIQAAELPALDMGGTSDPYVKVFLLPDKKKKFETKVHRKTLNPVFNEQFTFKVPYSELGGKTLVMAVYDFDRFSKHDIIGEFKVPMNTVDFGHVTEEWRDLQSAEKEEQEKLGDICFSLRYVPTAGKLTVVILEAKNLKKMDVGGLSDPYVKIHLMQNGKRLKKKKTTIKKNTLNPYYNESFSFEVPFEQIQKVQVVVTVLDYDKIGKNDAIGKVFVGYNSTGAELRHWSDMLANPRRPIAQWHTLQVEEEVDAMLAVKK
partner: B1 chain

Variants of: B1
Details: with syt1_rat Syt1, P21707

| effect of a mutation on the interaction | Variant |
| --- | --- |
| decreasing interaction | W738A;K740A |

Variants of: B2
Details: with ston2_human STON2, Q8WXE9

| effect of a mutation on the interaction | Variant |
| --- | --- |
| decreasing interaction | K189A;K190A |
